This note sets out measurements from FireProtDB (doi:10.1110/ps.8.7.1530).

For the series the following is noted: Escherichia coli (strain K12); pH 7.4; 22 °C; GdnHCl; Fluorescence; Sodium phosphate 20 mM; reversible: yes; whole UniProt chain shown.

B1: PTS system mannose-specific EIIAB component wild type, P69797 (protein)
chain: MTIAIVIGTHGWAAEQLLKTAEMLLGEQENVGWIDFVPGENAETLIEKYNAQLAKLDTTKGVLFLVDTWGGSPFNAASRIVVDKEHYEVIAGVNIPMLVETLMARDDDPSFDELVALAVETGREGVKALKAKPVEKAAPAPAAAAPKAAPTPAKPMGPNDYMVIGLARIDDRLIHGQVATRWTKETNVSRIIVVSDEVAADTVRKTLLTQVAPPGVTAHVVDVAKMIRVYNNPKYAGERVMLLFTNPTDVERLVEGGVKITSVNVGGMAFRQGKTQVNNAVSVDEKDIEAFKKLNARGIELEVRKVSTDPKLKMMDLISKIDK
Consider B1, for which the “denaturant midpoint (higher = more stable)” value amounted to 2.3 M and the unfolding free energy stood at 10.5 kcal/mol.
